{"source": "paper PMC9638024", "about": "“Functional rewiring of G protein-coupled receptor signaling in human labor” (Cell Reports, 2022)", "proteins": {"B1": {"name": "hemagglutinin (HA)-tagged OTR (protein)", "chain": "MEGALAANWSAEAANASAAPPGAEGNRTAGPPRRNEALARVEVAVLCLILLLALSGNACVLLALRTTRQKHSRLFFFMKHLSIADLVVAVFQVLPQLLWDITFRFYGPDLLCRLVKYLQVVGMFASTYLLLLMSLDRCLAICQPLRSLRRRTDRLAVLATWLGCLVASAPQVHIFSLREVADGVFDCWAVFIQPWGPKAYITWITLAVYIVPVIVLAACYGLISFKIWQNLRLKTAAAAAAEAPEGAAAGDGGRVALARVSSVKLISKAKIRTVKMTFIIVLAFIVCWTPFFFVQMWSVWDANAPKEASAFIIVMLLASLNSCCNPWIYMLFTGHLFHELVQRFLCCSASYLKGRRLGETSASKKSNSSSFVLSHRSSSQRSCSQPSTA"}}, "target": "FLAG-tagged EP2, P43116", "sequence (P43116 whole entry)": "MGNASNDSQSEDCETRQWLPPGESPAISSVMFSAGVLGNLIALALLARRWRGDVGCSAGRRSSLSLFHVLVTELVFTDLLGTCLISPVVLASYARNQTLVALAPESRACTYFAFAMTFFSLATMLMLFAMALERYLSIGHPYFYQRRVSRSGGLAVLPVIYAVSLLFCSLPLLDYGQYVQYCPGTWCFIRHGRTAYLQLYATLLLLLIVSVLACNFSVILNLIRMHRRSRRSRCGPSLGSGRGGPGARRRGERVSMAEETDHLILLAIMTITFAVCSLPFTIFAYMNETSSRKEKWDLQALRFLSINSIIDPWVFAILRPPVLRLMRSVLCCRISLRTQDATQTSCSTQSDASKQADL", "assay": "PD-PALM (dual-color photoactivated localization microscopy with photoactivatable dyes); HEK 293 cells stably expressing FLAG-EP2 and transfected with HA-OTR; live labelling with anti-FLAG-CAGE 500 and anti-HA-CAGE 552, fixed, TIRF plane, 25 C; search radius 50 nm, Getis Franklin …", "conditions": "other: PD-PALM (dual-color photoactivated localization microscopy with photoactivatable dyes)"}
{"protein": "B1", "values": [{"measurement": "percent of the heteromers that are heterodimers (basal)", "result": "heterodimers (∼55% of the heteromers)"}]}
